Broadly, the Kd is the constant that tells how readily two partners part at equilibrium.

The values that follow come from PMC7141386, “Extracellular CIRP induces macrophage endotoxin tolerance through IL-6R–mediated STAT3 activation” (JCI Insight, 2020).

Assay [1] concerns the target T1, recombinant human IL-6R alpha protein Leu20-Asp358 (human, UniProt P08887 20-358).
T1 construct: human IL-6 receptor alpha, Leu20-Asp358; no tags in the Biacore assay; also called rhIL-6R; IL-6 receptor; source: bought: R&D Systems, Bio-Techne; Spodoptera frugiperda Sf21, baculovirus-derived
T1 sequence (looked up): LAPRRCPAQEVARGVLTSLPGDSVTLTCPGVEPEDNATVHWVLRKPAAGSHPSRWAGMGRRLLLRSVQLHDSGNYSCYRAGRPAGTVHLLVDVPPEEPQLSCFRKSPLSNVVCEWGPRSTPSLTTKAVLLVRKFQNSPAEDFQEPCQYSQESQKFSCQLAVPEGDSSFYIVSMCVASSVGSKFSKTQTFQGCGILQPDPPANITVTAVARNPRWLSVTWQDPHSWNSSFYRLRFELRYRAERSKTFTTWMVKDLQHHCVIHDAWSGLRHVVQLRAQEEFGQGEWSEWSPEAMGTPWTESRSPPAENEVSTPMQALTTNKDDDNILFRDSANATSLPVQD
The experiment in a line: SPR; Biacore 3000; rhIL-6R immobilised on a CM5 chip (amine coupling, 10 mM sodium acetate pH 4.5); rhCIRP as analyte 0-1.0 uM; 1x PBS with 0.01% Tween-20, pH 7.4; 30 uL/min, 25°C; global fit to the Langmuir model for 1:1 binding. To be noted: both partners purified. (In general: SPR reads the build-up and loss of mass on a sensor chip optically.)

Assay [2] addresses T2, mouse IL-6 receptor on peritoneal macrophages (mouse (endogenous in peritoneal …, UniProt P22272 20-460)).
T2 construct: IL-6 receptor alpha, mouse, endogenous on peritoneal macrophages, detected with goat anti-mouse IL-6R antibody; also called IL-6Rα; source: endogenous, on murine peritoneal macrophages
T2 sequence (looked up): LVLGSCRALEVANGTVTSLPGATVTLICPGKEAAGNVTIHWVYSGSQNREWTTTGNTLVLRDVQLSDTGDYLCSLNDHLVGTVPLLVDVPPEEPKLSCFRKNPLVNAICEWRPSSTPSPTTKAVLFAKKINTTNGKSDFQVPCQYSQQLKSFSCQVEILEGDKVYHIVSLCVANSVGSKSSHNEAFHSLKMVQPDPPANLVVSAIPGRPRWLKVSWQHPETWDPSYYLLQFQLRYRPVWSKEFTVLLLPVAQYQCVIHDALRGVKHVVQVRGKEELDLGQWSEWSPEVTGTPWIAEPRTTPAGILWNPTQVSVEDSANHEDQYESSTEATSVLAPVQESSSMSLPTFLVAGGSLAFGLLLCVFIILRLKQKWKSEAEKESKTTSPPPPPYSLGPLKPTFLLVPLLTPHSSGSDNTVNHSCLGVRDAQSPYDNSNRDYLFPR
Put plainly: FRET or BRET; peritoneal macrophages in a 96-well plate treated with rmCIRP for 10 minutes at 4°C, fixed with 4% paraformaldehyde, stained with anti-CIRP and anti-IL-6R or anti-CD11b antibodies and Cy3- and Cy5-labelled secondary antibodies; FRET units from cell-associated fluorescence (Biotek Synergy Neo2). To be noted: one partner purified. (In BRET a luciferase serves as donor, and the signal depends on an acceptor being close.)

B1: recombinant human CIRP (cold-inducible RNA-binding protein) (natural protein, UniProt Q14011 1-172, looked up)
chain: MASDEGKLFVGGLSFDTNEQSLEQVFSKYGQISEVVVVKDRETQRSRGFGFVTFENIDDAKDAMMAMNGKSVDGRQIRVDQAGKSSDNRSRGYRGGSAGGRGFFRGGRGRGRGFSRGGGDRGYGGNRFESRSGGYGGSRDYYSSRSQSGGYSDRSSGGSYRDSYDSYATHNE
notes: also called rhCIRP; eCIRP; source: bought: Origene
With B1, the Kd in assay [1] is 98 nM.

B2: recombinant murine CIRP (cold-inducible RNA-binding protein) (natural protein, mouse, UniProt P60824 1-172, looked up)
chain: MASDEGKLFVGGLSFDTNEQALEQVFSKYGQISEVVVVKDRETQRSRGFGFVTFENIDDAKDAMMAMNGKSVDGRQIRVDQAGKSSDNRSRGYRGGSAGGRGFFRGGRSRGRGFSRGGGDRGYGGGRFESRSGGYGGSRDYYASRSQGGSYGYRSSGGSYRDSYDSYATHNE
notes: also called rmCIRP
As for B2, the “fold increase in FRET units against the negative control CD11b” value in assay [2] turned out to be 17 fold.
